Holding throughout (experiment): radiochemical methyl transfer from (3H)SAM, nonlinear regression
Holding throughout (format): biochemical, Gallus gallus

Substrate in data set [1]: C[S+](CC[C@H](N)C(=O)O)C[C@H]1O[C@@H](n2cnc3c(N)ncnc32)[C@H](O)[C@@H]1O
The following applies: 20 mM carnosine, variable (1H+3H)SAM, 1 mM MgCl2, pH 7.5, 37 °C, labelled compound. The source says: (§1) radiochemical methyl transfer from (3H)SAM, nonlinear regression on chicken HNMT-like protein (recombinant carnosine N-methyltransferase)

Substrate in data set [2]: NCCC(=O)N[C@@H](Cc1cnc[nH]1)C(=O)O
As to conditions: non-saturating 1 µM SAM, 1 mM MgCl2, pH 7.5, 37 °C.
From the text: as §1

Substrate in data set [3]: C[S+](CC[C@H](N)C(=O)O)C[C@H]1O[C@@H](n2cnc3c(N)ncnc32)[C@H](O)[C@@H]1O
The following applies: 20 mM carnosine, variable (1H+3H)SAM, 1 mM MgCl2, pH 7.5, 37 °C, labelled compound. The source says: (§2) radiochemical methyl transfer from (3H)SAM, nonlinear regression on carnosine N-methyltransferase (native, chicken pectoral muscle)
The source holds these as a separate data set.

Substrate in data set [4]: NCCC(=O)N[C@@H](Cc1cnc[nH]1)C(=O)O
The following applies: non-saturating 1 µM SAM, 1 mM MgCl2, pH 7.5, 37 °C.
From the text: as §2
The source holds these as a separate data set.

B1: chicken HNMT-like protein (recombinant carnosine N-methyltransferase) (Gallus gallus) (protein)
chain: MEPTPEMKRNRLPSMNFEAEILADPHDNSELYVIPSMRSLTAEEYVEAFQSFLDHSTEHQCMDEFNKEVMPHIMAGLGNGKSTINILGVGSGTGEQDLKMIQILQAAHPGVLINNEIIEPNPQHVAAYKELVNRAPDLQGVSFTWHQLTSSEYEQQVKEKNTHKKFDFIHMIQMLYRVEDIPNTIKFFHSCLNHQGKLLIIILSDSSGWASLWKKYRHCLPSTDSGHYITSDSITAVLRKLGIKYHVYEFPSGWDITECFIEGDPAGGHMMDFLTGTKNFLGTAPAALRSRLQEALCQPECSSRKDGRVIFCNNLSMIVAES
notes: full-length ORF from pectoral muscle cDNA, C-terminal His6 tag (pEF6/Myc-His A), expressed in COS-7, HisTrap purified to homogeneity, monomer about 38 kDa (36 kDa without tag)
What is called Km is the concentration of substrate that gives half-maximal velocity. In general, Vmax refers to the top rate of the reaction or transport when substrate is in excess. For orientation: kcat means the maximal rate divided by the concentration of active sites. For the protein B1, in data set [1], the Km came to 14 ± 1 µM, the Vmax came to 0.786 µmol/min/mg and the kcat was found to be 0.519 ± 0.013 s⁻¹. In addition, in data set [2], the Km is 1628 ± 71 µM, the Vmax was 0.0519 µmol/min/mg and the kcat stood at 0.034 ± 0.001 s⁻¹.

B2: carnosine N-methyltransferase (native, chicken pectoral muscle) (Gallus gallus) (protein)
chain: MEPTPEMKRNRLPSMNFEAEILADPHDNSELYVIPSMRSLTAEEYVEAFQSFLDHSTEHQCMDEFNKEVMPHIMAGLGNGKSTINILGVGSGTGEQDLKMIQILQAAHPGVLINNEIIEPNPQHVAAYKELVNRAPDLQGVSFTWHQLTSSEYEQQVKEKNTHKKFDFIHMIQMLYRVEDIPNTIKFFHSCLNHQGKLLIIILSDSSGWASLWKKYRHCLPSTDSGHYITSDSITAVLRKLGIKYHVYEFPSGWDITECFIEGDPAGGHMMDFLTGTKNFLGTAPAALRSRLQEALCQPECSSRKDGRVIFCNNLSMIVAES
notes: about 45 kDa by gel filtration
With B2, in data set [3], the Km stood at 11 ± 1 µM, the Vmax was 0.153 µmol/min/mg and the kcat came out at 0.093 ± 0.002 s⁻¹. Besides, in data set [4], the Km was 1646 ± 157 µM, the Vmax came to 0.0138 µmol/min/mg and the kcat was 0.008 s⁻¹.

These data come from publication PMC3660329, “Molecular Identification of Carnosine N-Methyltransferase as Chicken Histamine N-Methyltransferase-Like Protein (HNMT-Like)” (PLoS ONE, 2013).
